From publication PMC10156769, “The novel anti-cancer fluoropyrimidine NUC-3373 is a potent inhibitor of thymidylate synthase and an effective DNA-damaging agent” (Cancer Chemotherapy and Pharmacology, 2023) come the findings set out here.

Substrate in the data set “purified protein”: O=c1ccn([C@H]2C[C@H](O)[C@@H](COP(=O)(O)OP(=O)(O)OP(=O)(O)O)O2)c(=O)[nH]1
In words: purified protein. The settings on record: Mg2+ ([…] MgCl2 in the assay buffer).

Substrate in data set [1]: O=c1[nH]c(=O)n([C@H]2C[C@H](O)[C@@H](COP(=O)(O)OP(=O)(O)OP(=O)(O)O)O2)cc1F
Description: EnzChek pyrophosphate coupled assay, Michaelis-Menten substrate kinetics (KM). Type of data set: biochemical, Homo sapiens. The settings on record: Mg2+ ([…] MgCl2 in the assay buffer).

B1: dUTPase (Deoxyuridine triphosphate nucleotidohydrolase) (Homo sapiens) (protein)
chain: ASTVGAAGWKGELPKAGGSPAPGPETPAISPSKRARPAEVGGMQLRFARLSEHATAPTRGSARAAGYDLYSAYDYTIPPMEKAVVKTDIQIALPSGCYGRVAPRSGLAAKHFIDVGAGVIDEDYRGNVGVVLFNFGKEKFEVKKGDRIAQLICERIFYPEIEEVQALDDTERGSGGFGSTGKN
On to B1, for which the Km in “purified protein” came out at 3.2 ± 1.8 µM; in data set [1], 19.1 ± 6.7 µM.
